According to the supplement of paper PMC12042874:
± gives the uncertainty stated by the source.

Test: amyloid nucleation score (Sup35N fusion, yeast selection) (log enrichment); library NNK3; higher = more nucleation; inactive = no reads after selection
How it was run: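 Nucleation score is defined as the DiMSum log enrichment of output over input reads, with centring on the mode score of non-aggregating sequences. A minimum of 100 input reads was required for each sequence. Reads came from Illumina sequencing of plasmid inserts from psi-negative yeast expressing Sup35N fused to peptides of 20 random codons, induced with 100 μM copper sulfate for 24 hours and grown 7 days at 30°C on medium lacking adenine and uracil.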

| Substance | amyloid nucleation score |
| --- | --- |
| CGNHASVWRIGTVRKD | inactive |
| CGRGDSVLSI | inactive |
| CGSVSSI | inactive |
| CGSWYSCCKNINEVARSYTG | inactive |
| CGVEHYWRGLVG | inactive |
| CGVSWTVSIITDTFICN | 2.76 ± 0.06 |
| CHFPG | inactive |
| CHMWSEHSTTLMYYSKKY | 0.199 ± 0.41 |
| CHYFNNLACYGSRIEMT | inactive |
| CHYRYISYVENFPCSERVSI | inactive |
| CICWQHDKVVAYSLSDAGMA | inactive |
| CIFTIFNYQTLIELSHYFSR | 1.82 ± 0.067 |
| CIGTI | inactive |
| CIGWRIM | inactive |
| CIHSRTNNIRMTNCVRLGLG | inactive |
| CINNLYGRNVGSYGECEPFA | inactive |
| CIPCTVTFG | inactive |
| CISFPDDWRSHTI | inactive |
| CIVKTLQ | inactive |
| CKCVNLQFAVTIHCGGFVPF | 2.52 ± 0.072 |
| CKFSDW | inactive |
| CKGKSFFARSYS | inactive |
| CKMRVILKFIKNL | 0.48 ± 0.16 |

| Substance | amyloid nucleation score |
| --- | --- |
| CKNQHFLSLIGFLYHIDPKR | 0.709 ± 0.17 |
| CKTGPEDTC | inactive |
| CLATN | inactive |
| CLCKLEWHNTYMGYKR | 2.63 ± 0.08 |
| CLCNRDRLSSNFGGMTDKLH | inactive |
| CLCVTAGYISNTGGHRSWII | inactive |
| CLFSLPWWCSMM | inactive |
| CLGAGLRSGSAARLYEFGQV | inactive |
| CLGFSL | inactive |
| CLILCLIKYIERRFCWCFPW | inactive |
| CLKGNFIVNSNVFKCVLWYS | inactive |
| CLNHQASMVSTAPVEFFRFL | inactive |
| CLPWHWMLNYFGYKNVKS | inactive |
| CLQSQFLNFE | inactive |
| CLRLGLIMDTKK | inactive |
| CLSGRCRASMLPLGRVSKCD | inactive |
| CLTYRSG | inactive |
| CLVHEVPWRQMGSDLNKAAS | inactive |
| CLVPFAGQWHTVEIMMSSCQ | inactive |
| CLWRRCMPSHPMVEVSRLIW | inactive |
| CLYNGMWSCVEWNSKGSMHL | 1.26 ± 0.069 |
| CMCRLEGRTSDLCQESGSCC | -1.13 ± 1.5 |
| CMDYYKMYISYYFDAGWVLS | inactive |

| Substance | amyloid nucleation score |
| --- | --- |
| CMFVVFQLVTGHFTLLQYHG | 1.82 ± 0.077 |
| CMHGKGHSTFINNKDPVKVR | inactive |
| CMSPYALGEISKRRVEVDSY | inactive |
| CMSPYWML | inactive |
| CMYILFINVCMATGANYGSY | 1.58 ± 0.092 |
| CNLYPCPYSKITDTAMLLGC | inactive |
| CNMPGLVDDFLCHGICNNVV | inactive |
| CNRVPVFFMFYVEQGVLRWN | 2.13 ± 0.081 |
| CPHMKLFRLLI | inactive |
| CPYALMWSLSYSWSFPYRMS | 0.286 ± 0.56 |
| CQCEIF | 0.065 ± 0.56 |
| CQFFQFDLNYEFKLVSRAHK | inactive |
| CQKRETVFIKRD | inactive |
| CQLLHMELDNARRCEIKKPA | inactive |
| CQQIWRLGQCVQLLFCTRSK | 1.31 ± 0.11 |
| CQSSVLLCSYCGY | 2.65 ± 0.074 |
| CQYRVTSYHSSWFFSEAMHP | -0.268 ± 0.7 |
| CRCHRLVNIPSMFWCLKFVG | inactive |
| CRCKC | inactive |
| CRDNTGFCRGSAAVFNRCTG | inactive |
| CRDYYYHSQYCVVASVGTVV | inactive |
| CREVINDSFPNATWLHSGLV | inactive |
| CRHRYLDCCFGNWHP | inactive |

| Substance | amyloid nucleation score |
| --- | --- |
| CRLELPMGSTTDDDRGQKVD | -0.014 ± 0.53 |
| CRLRGKLIYLLIMDGTKE | inactive |
| CRLVINNYMSR | 2.83 ± 0.065 |
| CRMERGRFRLLKTQ | inactive |
| CRNKFLVKGAFTRGSREN | inactive |
| CRSAVKMGVPLRILLMY | inactive |
| CRTSHSWVMYWLRREMCY | inactive |
| CRVVDFG | -0.107 ± 0.49 |
| CRWEVCVVLFLMNCDKNGSC | inactive |
| CSASAYDSVIIDRIIYLIRG | inactive |
| CSEVFTSNWAYETASNCKRV | 1.08 ± 0.12 |
| CSEVGRS | inactive |
| CSIHL | inactive |
| CSLQLASDQGFSQRDDCTVH | inactive |
| CSNKQSDTSFAYLTIMNMCP | inactive |
| CSVTIGLIDTSPAIVSIPSD | inactive |
| CSVVSWFEAGFRFNDLMNGV | inactive |
| CTFDSSSNYADSAKLIG | inactive |
| CTFQYSIIYRCYYRYGVVR | inactive |
| CTITNWHNKYC | inactive |
| CTLVLLKQ | inactive |
| CTVNCMTNNATVLVVRGPLR | 2.26 ± 0.067 |
| CVASR | inactive |

| Substance | amyloid nucleation score |
| --- | --- |
| CVCPDNDSPCDLGWVRRGNR | inactive |
| CVDTDLVERWIAWVSSGVML | 0.663 ± 0.21 |
| CVFLCDDWFGFCNLNRRFKG | 2.82 ± 0.074 |
| CVFRWMLFSASEYDGRILKW | inactive |
| CVGQAPGVSLGFQTYQLILW | inactive |
| CVLKMLNNHHAHFILNGCRT | inactive |
| CVLNW | inactive |
| CVMCG | inactive |
| CVSIKIASPPF | 0.43 ± 0.3 |
| CVVCCG | inactive |
| CVYQLLGLVKMRNIRADGHA | inactive |
| CWFFV | 0.242 ± 0.39 |
| CWFKLMLASMIKENTLSTYG | inactive |
| CWHCVIDAGFLSQYVRVFYS | inactive |
| CWYQPPNDNVYFMMILYI | 1.97 ± 0.084 |
| CYQSE | inactive |
| CYRLQAFNARGTERTDAVYL | inactive |
| CYRRSYASKLSDV | inactive |
| CYRSISRRDPS | inactive |
| CYSPQFVCYATGHVKSDLML | inactive |
| CYWEPRSWISCRRPILRMSV | inactive |
| DARNET | inactive |
| DARVFKAVFRVLCDLVPASC | inactive |

| Substance | amyloid nucleation score |
| --- | --- |
| DATSNC | -0.232 ± 0.73 |
| DCNSVFVLRVFNSVLFGIKD | inactive |
| DCVGYRGGDGFAWTADELWS | inactive |
| DCWYHMPHQIWH | inactive |
| DDGGVTVVWTCGRVCIQMGN | 0.399 ± 0.24 |
| DDGSLDLMTKTA | inactive |
| DDKRTENG | inactive |
| DDLYMFMLIVRMLISQIKRV | inactive |
| DDSLDVSCLEYRSAME | inactive |
| DDTRYHAHTSNLGRITHRIQ | inactive |
| DECSAHSSFQLSKSILFGQV | inactive |
| DEGKSNPPF | inactive |
| DEPAFQDFVLYTSSSSCWRY | inactive |
| DEYATRIGYWCCK | 1.7 ± 0.084 |
| DFCLCNIRVFPEYRSHYGFG | inactive |
| DFCMVVHCIKFMGLCRGGDV | 1.02 ± 0.17 |
| DFCMWSYRHRDLCNSVFISS | inactive |
| DFFLDYL | inactive |
| DFFNWWSSVWFYLLMGRKVE | inactive |
| DFGCKSINCFLNATQ | inactive |
| DFGKNSLWSSREDNLKYWFM | inactive |
| DFHDLEWILNIEGACEEQGT | inactive |
| DFHYFKRVRNQGWNQKRKRY | inactive |

| Substance | amyloid nucleation score |
| --- | --- |
| DFIFIQILDVNCRWDRCMYC | 0.444 ± 0.16 |
| DFNDSLFLPRIDTPSLVFLQ | inactive |
| DFNLFKAQIYLWNSFDVSEF | 0.99 ± 0.14 |
| DFRSSRLHSIITTQFIYFYD | inactive |
| DFSFSIRVGSSALGVSKNTE | 1.31 ± 0.093 |
| DGILTVCYEVVNWNSSSVLL | inactive |
| DGLKNYRWYRFNTLDDGLAG | inactive |
| DGNLWMKSVCCWTKVFIELL | 1.37 ± 0.12 |
| DGYKMCRDGIGWIGT | inactive |
| DHGSIRRMGELHWMQLR | inactive |
| DHHQIFYVWSLPMA | inactive |
| DHRRLPSCPIFDWFTLNRGP | inactive |
| DIPAVINVMGSVYDGR | inactive |
| DISIGQRVRCTIFSGIGPLT | -0.913 ± 2.5 |
| DIVILSTSASSTS | inactive |
| DIWFGSSKKSVMRV | inactive |
| DIWYKVLYMPVLTV | inactive |
| DIWYRIKMFSIWKFMSHTTG | inactive |
| DKELKPNFRWGRNFYSFYIC | inactive |
| DKHMIGLYNPRASIELL | inactive |
| DLCAEFWIYWHVTMPVYLEM | inactive |
| DLFGCPDLMMYTELIMLYW | inactive |
| DLFSFYVGCLKSHPENPSLM | inactive |
